Earlier results in PMC4072394.

Key:
Asp299 = experiment: UV-vis; conditions: detergent-solubilised, unphotolysed (ground) state with protonated Schiff base
Glu169 = experiment: UV-vis; conditions: detergent-solubilised, unphotolysed (ground) state with protonated Schiff base

In the case of “Channelrhodopsin-1 (CaChR1) (Chlamydomonas augustae)”, the pKa (Asp299) is given as “near 5” and the pKa (Glu169) is given as “near 9”.
